Experimental findings from paper PMC12207370, “Macrocyclic Peptide Probes for Immunomodulatory Protein CD59: Potent Modulators of Bacterial Toxin Activity and Antibody‐Dependent Cytotoxicity” (Angewandte Chemie (International Ed. in English), 2025) are described below.

For the test, the target named is T1, biotinylated CD59 (Homo sapiens, UniProt P13987).
T1 construct: Recombinant soluble human CD59 with an additional C-terminal cysteine residue
T1 sequence (P13987 26-102 limits assumed): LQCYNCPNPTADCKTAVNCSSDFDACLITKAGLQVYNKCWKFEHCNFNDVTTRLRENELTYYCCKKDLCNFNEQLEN
In words: mRNA-display cyclic peptide screen against CD59-biotin, NGS abundance after 6th selection round. Conditions: for Percentage Seq I: counts normalised by total counts of sample Seq I; for Percentage Seq I / Percentage Seq II: percentage of the pool; for Percentage Seq I / Percentage Seq II / Percentage Average / Percentage of the pool, averaged across the two sequencing samples / Percentage of the pool, Seq I / Percentage of the pool, Seq II: sheet R6; for Percentage Seq II: counts normalised by total counts of sample Seq II; for Percentage Average: percentage of the pool averaged across the two sequencing samples; for Counts Seq I / Counts Seq II: raw NGS counts of peptide sequence; for Counts Seq I: sequencing sample Seq I; for Counts Seq I / Counts Seq II / Counts (raw counts for peptide sequence), Seq I / Counts (raw counts for peptide sequence), Seq II: sheet R6 (6th selection round); for Counts Seq II: sequencing sample Seq II; for Counts (raw counts for peptide sequence), Seq I: NGS sample Seq I; for Counts (raw counts for peptide sequence), Seq II: NGS sample Seq II; for Percentage of the pool, averaged across the two sequencing samples: average of Seq I and Seq II; for Percentage of the pool, Seq I: counts normalised by total counts of NGS sample Seq I; for Percentage of the pool, Seq II: counts normalised by total counts of NGS sample Seq II. The source says:
To discover novel non‐protein CD59 ligands, we screened a library of 10^12 cyclic peptides against CD59 using mRNA‐display (Figure 2a).^[ [23], [24], [25], [26], [27], [28], [29] ^] Briefly, an mRNA library was designed in which the start codon was reprogrammed from Met to N‐chloroacetyl‐D‐Tyr (ClAc‐D‐Tyr), followed by 10–12 randomly encoded natural amino acids, a Cys residue, a (GlySer)3 linker, and a stop codon. […] The total library diversity was 1.51 × 10^13 molecules, comprising 5.02 × 10^12 molecules of each macrocycle size, covering a subset of the maximum theoretical diversity of this library design. Following in vitro translation, ClAc‐D‐Tyr spontaneously reacts with either the C‐terminal Cys or a Cys in the random region, yielding macrocyclic thioether peptides. Hits from the library were identified through iterative enrichment and amplification against biotinylated CD59, then immobilized on streptavidin beads. Fifteen hit sequences (CP‐01 to CP‐15), enriched with abundance >1% relative to the total pool of recovered binders after the 6th round of selection, were synthesized by solid phase peptide synthesis (SPPS), without the (Gly‐Ser)3 linker.
Figure 2 Discovery of macrocyclic peptide ligands with nanomolar CD59 affinity using mRNA display. a) The selection process. PCR = polymerase chain reaction, SPPS = solid phase peptide synthesis. b) Table showing details of the peptides with nanomolar affinity for CD59 as well as the binding affinity of the lead inhibitor of CD59, rILYd4. K D values are presented as the average of three technical replicates ± SEM. Structures of all peptides and SPR sensograms are presented in Figures S1 and S2. *indicates the presented sequences are the variable regions of these cyclic peptides; each is flanked by an N‐terminal Ac‐D‐Tyr cyclized to a C‐terminal Cys. R6 abundance (%) is defined as (the given number of NGS reads for a given sequence/the total number of reads of unique sequences observed in NGS)*100 following the 6th selection round. c) Representative sensogram of the interaction between CP‐06 with immobilized CD59 by SPR analysis. Inset showing the equilibrium binding curve of CP‐06 to CD‐59. Below in the box are the association and dissociation rate constants of CP‐06. Concentrations are plotted in descending order from 800‐3.1 nM in line with their position on the legend. […] (nM)'; the box with Kon/Koff has no label of its own / ILYd4: the label may be cut off at the left edge (possibly 'rILYd4') / CP-02, KD: 15.3 ± 0.2, small print, 3 or 8 uncertain / CP-03, KD: 23.4 ± 0.7, small print / CP-06, KD: 11.3 ± 0.0, small print, 3 or 8 uncertain / CP-13, KD: 10.8 ± 0.7, small print, 8 or 6 uncertain / ILYd4, KD: 48.3 ± 1.1, small print, 8 and 3 uncertain
The mRNA-display cyclic peptide screen was performed against CD59-biotin by T.E.M: DNA templates for transcription were generated by PCR in a similar manner to that previously described.^2 RNA oligonucleotides were transcribed from the DNA templates using T7 RNA polymerase and purified by phenol/chloroform extraction followed by ethanol precipitation. Oligonucleotide concentrations were determined spectroscopically by absorbance at 260 nm. In the first selection round a 1:1:1 molar ratio of NNK10/NNK11/NNK12 was used. The procedure for selection rounds 2-6 is described below; round 1 was conducted at twice the scale.
RNA encoding for the peptide library ligated to a puromycin-modified oligonucleotide was […] (final [RNA] = 2.5 µM) using a customised PURE express kit (lacking release factor 1 and methionine, supplemented with […] initiator tRNA acylated with N-chloroacetyl-d-tyrosine prepared as previously described)^3 in a final volume of 5.6 µL for 1 hour at 37 °C.
This mixture was incubated at 42 °C for 1 hour before being diluted to 500 µL with PBS (10 mM Na-PO4 pH 7.4, 2.7 mM KCl, 137 mM NaCl) and 0.5 µL taken for subsequent use in qPCR. […]

In the case of HCWVRGSRSYT, the “Percentage Seq I” value was 0.022%, the “Percentage Seq II” value amounted to 0.021%, the “Percentage Average” value is listed as 0.022% and the “Counts Seq I” value worked out at 97. The “Counts Seq II” value was determined as 9.
Regarding IAFGSRFHSYQ, the “Percentage Seq I” value turned out to be 0.584%, the “Percentage Seq II” value is on record as 0.647%, the “Percentage Average” value is reported as 0.616% and the “Counts Seq I” value amounted to 2554. Also, the “Counts Seq II” value amounted to 279.
As to GRVRTCPVIV, the “Counts (raw counts for peptide sequence), Seq I” value was 65; the “Counts (raw counts for peptide sequence), Seq II” value is on record as 5; the “Percentage of the pool, averaged across the two sequencing samples” value was 0.013%; the “Percentage of the pool, Seq I” value is recorded as 0.015%. For the same sequence, the “Percentage of the pool, Seq II” value is 0.012%.
Take FIRGNSTSVPF: the “Counts (raw counts for peptide sequence), Seq I” value is given as 46; the “Counts (raw counts for peptide sequence), Seq II” value was 4; the “Percentage of the pool, averaged across the two sequencing samples” value was found to be 0.010%; the “Percentage of the pool, Seq I” value was determined as 0.011%. Besides, the “Percentage of the pool, Seq II” value turned out to be 0.009%.
For the sequence YAWGNRNNAYY, the “Percentage Seq I” value amounted to 0.060%, the “Percentage Seq II” value came to 0.049%, the “Percentage Average” value came out at 0.054% and the “Counts Seq I” value is on record as 263. Moreover, the “Counts Seq II” value came to 21.
With CFSHRSNSDGI, the “Percentage Seq I” value is 0.092%, the “Percentage Seq II” value turned out to be 0.081%, the “Percentage Average” value was 0.087% and the “Counts Seq I” value was 404. The “Counts Seq II” value is 35.
The like results for CYGGRTFIYAWT were, in that order, 0.043%, 0.035%, 0.039%, 190 and 15.
For the sequence CFSHRNPTDSI, the “Counts (raw counts for peptide sequence), Seq I” value was determined as 32; the “Counts (raw counts for peptide sequence), Seq II” value was 6; the “Percentage of the pool, averaged across the two sequencing samples” value was determined as 0.011%; the “Percentage of the pool, Seq I” value is listed as 0.007%. Moreover, the “Percentage of the pool, Seq II” value amounted to 0.014%.
For the sequence NYVERLCTSG, the “Counts (raw counts for peptide sequence), Seq I” value amounted to 68; the “Counts (raw counts for peptide sequence), Seq II” value was found to be 5; the “Percentage of the pool, averaged across the two sequencing samples” value came out at 0.014%; the “Percentage of the pool, Seq I” value is 0.016%. The “Percentage of the pool, Seq II” value is 0.012%.
Turning to CFRNRVLEITST, the “Percentage Seq I” value is given as 0.042%, the “Percentage Seq II” value is 0.032%, the “Percentage Average” value was 0.037% and the “Counts Seq I” value is 183. Also, the “Counts Seq II” value was determined as 14.
Regarding GPRNECHSQFQN, the “Percentage Seq I” value was found to be 0.092%, the “Percentage Seq II” value amounted to 0.086%, the “Percentage Average” value was 0.089% and the “Counts Seq I” value was found to be 401. Moreover, the “Counts Seq II” value was 37.
With VSRGDSTYTLF, the “Percentage Seq I” value is listed as 0.031%, the “Percentage Seq II” value was determined as 0.028%, the “Percentage Average” value worked out at 0.030% and the “Counts Seq I” value is given as 137. Moreover, the “Counts Seq II” value was 12.
Turning to YVFGNRSFARG, the “Counts (raw counts for peptide sequence), Seq I” value is reported as 32; the “Counts (raw counts for peptide sequence), Seq II” value came to 7; the “Percentage of the pool, averaged across the two sequencing samples” value turned out to be 0.012%; the “Percentage of the pool, Seq I” value was 0.007%. In addition, the “Percentage of the pool, Seq II” value is 0.016%.
As for WSTGSSTFAAG, the “Percentage Seq I” value was 0.034%, the “Percentage Seq II” value worked out at 0.042%, the “Percentage Average” value amounted to 0.038% and the “Counts Seq I” value came out at 149. For the same sequence, the “Counts Seq II” value came to 18.
With GYKNECHSFNW, the “Counts (raw counts for peptide sequence), Seq I” value is listed as 40; the “Counts (raw counts for peptide sequence), Seq II” value is recorded as 6; the “Percentage of the pool, averaged across the two sequencing samples” value came out at 0.012%; the “Percentage of the pool, Seq I” value is listed as 0.009%. Besides, the “Percentage of the pool, Seq II” value is given as 0.014%.
As to CYGGRTFIYVWS, the “Percentage Seq I” value was found to be 0.038%, the “Percentage Seq II” value is on record as 0.023%, the “Percentage Average” value is 0.031% and the “Counts Seq I” value is 168. Further, the “Counts Seq II” value came to 10.
The matching figures for WILGSRWWTQR: 0.021%, 0.021%, 0.021%, 91 and 9.
For LNPQGHCLLKL, the “Counts (raw counts for peptide sequence), Seq I” value is listed as 55; the “Counts (raw counts for peptide sequence), Seq II” value amounted to 8; the “Percentage of the pool, averaged across the two sequencing samples” value is recorded as 0.016%; the “Percentage of the pool, Seq I” value is listed as 0.013%. In addition, the “Percentage of the pool, Seq II” value turned out to be 0.019%.
The like results for RCWASGSRDWR were, in that order, 95, 6, 0.018%, 0.022% and 0.014%.
Consider LWGAANYLKVIY, for which the “Percentage Seq I” value turned out to be 0.046%, the “Percentage Seq II” value came out at 0.023%, the “Percentage Average” value amounted to 0.035% and the “Counts Seq I” value was found to be 201. In addition, the “Counts Seq II” value amounted to 10.
As for YLSGSSNFARG, the “Counts (raw counts for peptide sequence), Seq I” value was 48; the “Counts (raw counts for peptide sequence), Seq II” value was determined as 7; the “Percentage of the pool, averaged across the two sequencing samples” value is on record as 0.014%; the “Percentage of the pool, Seq I” value was determined as 0.011%. In addition, the “Percentage of the pool, Seq II” value is 0.016%.
As to CYGGRTSIYAWS, the “Percentage Seq I” value is reported as 0.032%, the “Percentage Seq II” value is 0.023%, the “Percentage Average” value came to 0.028% and the “Counts Seq I” value came to 142. Also, the “Counts Seq II” value is 10.
With WRDRFDQCIL, the “Counts (raw counts for peptide sequence), Seq I” value is recorded as 60; the “Counts (raw counts for peptide sequence), Seq II” value is given as 5; the “Percentage of the pool, averaged across the two sequencing samples” value is reported as 0.013%; the “Percentage of the pool, Seq I” value came out at 0.014%. The “Percentage of the pool, Seq II” value is on record as 0.012%.
As for CKIDVYGRTWS, the “Counts (raw counts for peptide sequence), Seq I” value was found to be 81; the “Counts (raw counts for peptide sequence), Seq II” value was 5; the “Percentage of the pool, averaged across the two sequencing samples” value is 0.015%; the “Percentage of the pool, Seq I” value is reported as 0.019%. Moreover, the “Percentage of the pool, Seq II” value is listed as 0.012%.
On to YARGDASHTIW, for which the “Percentage Seq I” value was found to be 0.043%, the “Percentage Seq II” value is listed as 0.056%, the “Percentage Average” value was determined as 0.049% and the “Counts Seq I” value amounted to 186. The “Counts Seq II” value came to 24.
